This note sets out measurements from US9435807B2, “Use of leucyl tRNA synthetase” (Medicinal Bioconvergence Research Center, priority 2011, dated 2016).

Holding throughout (format): biochemical
Data set [1] has as its system CC(C)C[C@H](N)C(=O)O. As to the kind of experiment: ATP-PPi exchange assay, WT LRS. To be noted: other: absence of tRNA^Leu (ATP-PPi exchange); pH 7.6; 37.0 °C. The protocol:
The ATP-PPi exchange reaction was performed in a reaction mixture containing 2 mM [^32P]pyrophosphate (PPi) (80.70 mCi/mL), 50 mM HEPES-KOH (pH 7.6), 2 mM MgCl2, 8 mM KF, 4 mM ATP, and various concentrations of leucine and 25 nM of LRS. Reaction were initiated with enzymes and conducted in a 37° C. heat block. Aliquots (10 ul) were taken at different time points, and the reactions were stopped using lml of quenching buffer (50 mM NaPPi, 3.5% HC1O4, 2% activated charcoal). The charcoal suspension was filtered through a Whatman GF/A filter, washed four times with 5 ml of water and rinsed with 10 ml of 100% ethanol. The charcoal powder on the filters was dried, and the synthesized [^32P]ATP was counted using a scintillation counter (Beckman Coulter).

Data set [2] relates to T1, CC(C)C[C@H](N)C(=O)O.
T1 construct: made in house
As to the kind of experiment: Leucylation assay, LRS F50A/Y52A mutant. Conditions: other: LRS F50A/Y52, leucylation, substrate leucine; pH 7.6; 37.0 °C. On the procedure: (§1) In FIG. 5b, leucylations by LRS WT and mutants (F50A/Y52A, F50A, and Y52A) were carried out by using 4 μM tRNALeu and 50 nM enzymes.
(§2) The leucylation assay was carried out in a buffer containing 1 mM spermine, 50 mM HEPES-KOH (pH7.6), 25 mM KCl, 5 mM MgCl2, 4 mM ATP, 2 mg/ml bovine liver tRNA^Leu, various concentrations of [^3H]Leu (60 Ci/mmol), and 10-100 nM of LRS. Reactions were initiated with enzyme and conducted in a 37° C. heat block. Aliquots (10 ul) were taken at different time points and quenched on Whatman filter pads that were presoaked with 5% trichloroacetic acid (TCA). The pads were washed three times for 10 min each with cold 5% TCA, and once with cold 100% ethanol. The washed pads were then dried. Radioactivity was quantified in a scintillation counter (Beckman Coulter)

For data set [3], the system named is CC(C)C[C@H](N)C(=O)O. Briefly: Leucylation assay, LRS WT. Conditions: pH 7.6, 37.0 °C. The protocol:
as §1, §2

[4] abbreviates: other: LRS WT, leucylation, substrate leucine.

Sequence of LRS WT (Homo sapiens) (chain, as listed by the source): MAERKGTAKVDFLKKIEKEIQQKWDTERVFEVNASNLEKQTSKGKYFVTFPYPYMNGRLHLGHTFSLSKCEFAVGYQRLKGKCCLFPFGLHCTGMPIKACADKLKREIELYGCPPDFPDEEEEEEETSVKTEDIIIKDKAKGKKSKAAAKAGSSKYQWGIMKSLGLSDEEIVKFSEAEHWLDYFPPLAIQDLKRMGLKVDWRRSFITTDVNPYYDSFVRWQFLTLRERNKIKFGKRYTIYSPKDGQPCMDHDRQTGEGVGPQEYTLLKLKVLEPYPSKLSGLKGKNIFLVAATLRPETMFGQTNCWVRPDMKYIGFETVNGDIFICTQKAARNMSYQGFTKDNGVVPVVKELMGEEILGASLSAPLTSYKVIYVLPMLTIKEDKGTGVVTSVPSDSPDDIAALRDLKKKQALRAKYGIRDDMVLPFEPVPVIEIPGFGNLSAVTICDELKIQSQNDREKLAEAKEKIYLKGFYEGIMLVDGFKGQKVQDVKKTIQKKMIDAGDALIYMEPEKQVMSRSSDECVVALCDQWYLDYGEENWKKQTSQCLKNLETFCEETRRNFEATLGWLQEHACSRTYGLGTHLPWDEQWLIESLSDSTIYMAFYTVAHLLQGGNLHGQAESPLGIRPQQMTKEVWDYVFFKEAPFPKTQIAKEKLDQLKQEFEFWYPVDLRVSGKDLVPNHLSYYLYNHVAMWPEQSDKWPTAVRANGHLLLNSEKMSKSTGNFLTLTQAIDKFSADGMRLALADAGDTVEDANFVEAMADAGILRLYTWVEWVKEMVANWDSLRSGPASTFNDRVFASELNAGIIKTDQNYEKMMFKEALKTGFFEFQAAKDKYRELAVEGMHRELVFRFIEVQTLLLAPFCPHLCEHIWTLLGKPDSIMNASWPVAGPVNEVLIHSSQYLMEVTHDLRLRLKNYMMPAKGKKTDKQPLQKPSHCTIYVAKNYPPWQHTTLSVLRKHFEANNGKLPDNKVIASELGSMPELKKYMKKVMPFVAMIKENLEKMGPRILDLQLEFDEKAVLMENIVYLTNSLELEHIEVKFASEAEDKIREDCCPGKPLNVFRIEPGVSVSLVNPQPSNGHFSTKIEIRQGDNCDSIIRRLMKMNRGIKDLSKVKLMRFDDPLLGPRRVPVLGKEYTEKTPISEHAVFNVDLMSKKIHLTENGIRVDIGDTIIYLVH
Sequence of LRS F50A/Y52 (Homo sapiens; F50A/Y52A) (chain, as listed by the source F50A F50A Y52A): as the sequence (chain, as listed by the source) above, with F50A, Y52A counted along it
Sequence of LRS (Homo sapiens) (chain, as listed by the source): as the sequence (chain, as listed by the source) above

Consider LRS (Homo sapiens), for which the Km in the data set with CC(C)C[C@H](N)C(=O)O [1] was 143 ± 61 µM.

LRS F50A/Y52 (Homo sapiens; F50A/Y52A): the Km in the data set with CC(C)C[C@H](N)C(=O)O [2] came to 536 ± 63 µM.

Consider LRS WT (Homo sapiens), for which, in the data set on CC(C)C[C@H](N)C(=O)O [3] (setting [4]), the Km stood at 15.9 ± 0.4 µM, the kcat was determined as 0.368 ± 0.009 s⁻¹ and the kcat/Km came out at 22900 ± 570 M⁻¹ s⁻¹. Also, the Km in the data set on CC(C)C[C@H](N)C(=O)O [3] (other: presence of tRNA^Leu (leucylation)) came out at 15.9 ± 0.4 µM.
